Experimental data from doi:10.1101/2021.12.29.474442, “Microtubule plus-end regulation by centriolar cap proteins” (bioRxiv, 2021).

T1: CPAP-CC1 (residues 89-196) (human, UniProt Q9HC77 89-196)
T1 construct: CPAP (CENPJ), human, residues 89-196 (coiled-coil domain CC1); Cleaved with HRV 3C (PreScission site); also called CPAP 89-196; source: E. coli BL21(DE3), purified (Ni-NTA, tag cleavage, SEC); not shown: thioredoxin, N-terminal, cleaved; His6, N-terminal, cleaved
T1 sequence (looked up): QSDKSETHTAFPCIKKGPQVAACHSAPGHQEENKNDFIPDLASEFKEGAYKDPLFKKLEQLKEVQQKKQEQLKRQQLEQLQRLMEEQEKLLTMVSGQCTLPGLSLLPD

B1: CEP97^CP110-GFP-SII (chimera of CEP97 1-650 and CP110 581-991) (other, human, UniProt Q8IW35 1-650, looked up)
chain: MAVARVDAALPPGEGSVVNWSGQGLQKLGPNLPCEADIHTLILDKNQIIKLENLEKCKRLIQLSVANNRLVRMMGVAKLTLLRVLNLPHNSIGCVEGLKELVHLEWLNLAGNNLKAMEQINSCTALQHLDLSDNNISQIGDLSKLVSLKTLLLHGNIITSLRMAPAYLPRSLAILSLAENEIRDLNEISFLASLTELEQLSIMNNPCVMATPSIPGFDYRPYIVSWCLNLRVLDGYVISQKESLKAEWLYSQGKGRAYRPGQHIQLVQYLATVCPLTSTLGLQTAEDAKLEKILSKQRFHQRQLMNQSQNEELSPLVPVETRASLIPEHSSPVQDCQISQESEPVIQVNSWVGINSNDDQLFAVKNNFPASVHTTRYSRNDLHLEDIQTDEDKLNCSLLSSESTFMPVASGLSPLSPTVELRLQGINLGLEDDGVADESVKGLESQVLDKEEEQPLWAANENSVQMMRSEINTEVNEKAGLLPCPEPTIISAILKDDNHSLTFFPESTEQKQSDIKKPENTQPENKETISQATSEKLPMILTQRSVALGQDKVALQKLNDAATKLQACWRGFYARNYNPQAKDVRYEIRLRRMQEHIVCLTDEIRRLRKERDEERIKKFVQEEAFRFLWNQVRSLQVWQQTVDQRLSSWHFEKVKRRLDLDIDGLQKENCPYVITSGITEQERQHLPEKRYPKGSGFVNKNKMLGTSSKESEELLKSKMLAFEEMRKRLEEQHAQQLSLLIAEQEREQERLQKEIEEQEKMLKEKKAMTAEASELDINNAVELEWRKISDSSLLETMLSQADSLHTSNSNSSGFTNSAMQYSFVSANEAPFYLWGSSTSGLTKLSVTRPFGRAKTRWSQVFSLEIQAKFNKITAVAKGFLTRRLMQTDKLKQLRQTVKDTMEFIRSFQSEAPLKRGIVSAQDASLQERVLAQLRAALYGIHDIFFVMDAAERMSILHHDREVRKEKMLRQMDKMKSPRVALSAATQKSLDRKKYMKAAEMGMPNKKFLVKQNPSETRVLQPNQGQNAPVHRLLSRQGSICRKNPKKAAKCCDNLRRQHSLG
notes: CEP97, human, N-terminal amino acids 1-650; A dimer by single-molecule fluorescence intensity; No linker between the two parts is told. pTT5 based vector (Addgene #52355 is the vector); also called CEP97-CP110 chimera; CP110-CEP97 fusion
B2: CP110-CC2 (residues 635-717) (domain or fragment, human, UniProt O43303-2 635-717, looked up)
chain: GTSSKESEELLKSKMLAFEEMRKRLEEQHAQQLSLLIAEQEREQERLQKEIEEQEKMLKEKKAMTAEASELDINNAVELEWRK
notes: CP110, human, residues 635-717 (coiled-coil domain CC2); Homodimer alone by SEC-MALS; one chain of it stands in the heterodimer with CPAP-CC1; source: E. coli BL21(DE3), purified (Ni-NTA, tag cleavage, SEC); not shown: thioredoxin, N-terminal, cleaved; His6, N-terminal, cleaved

Legend:
[1] = biological target: the molecule itself; assay: single-molecule fluorescence intensity counting (TIRF); single molecules immobilised on coverslips in MRB80 buffer; intensity compared with purified GFP (monomers) and GFP-EB3 (dimers)
[2] = biological target: the molecule itself; assay: SEC-MALS; 20°C, Superdex S75 or S200 10/30, 20 mM HEPES pH 7.5, 150 mM NaCl, 2 mM DTT; about 7 mg/ml loaded; proteins alone and equimolar (also 2:1, 3:1) mixtures
[3] = biological target: T1, CPAP-CC1 (residues 89-196); assay: cross-linking; zero-length cross-linker DMTMM (60 mM, 6 min, 25°C) followed by mass spectrometry (xQuest); conditions: both partners purified

Binder	stoichiometry N [1]	stoichiometry N [2]	binding result [3]
B1	2		
B2		2	binds
